Results: US7144731B2, “SCF antibody compositions and methods of using the same” (Amgen Inc., priority 1989, dated 2006)

Columns and labels:
[1] = system: 5-FU treated mouse bone marrow cells; test: HPP-CFC assay; format: cell-based; settings: typical assay; plated with CSF-1 or IL-6
Text: There are a variety of biological activities which can be attributed to the natural mammalian rat SCF as well as the recombinant rat SCF protein. One such activity is its effect on early hematopoietic cells. This activity can be measured in a High Proliferative Potential Colony Forming Cell (HPP-CFC) assay [Zsebo, et al., supra (1988)]. To investigate the effects of factors on early hematopoietic cells, the HPP-CFC assay system utilizes mouse bone marrow derived from animals 2 days after 5-fluorouracil (5-FU) treatment. […] The rat SCF is plated in the presence of CSF-1 or IL-6 in semi-solid agar cultures. The agar cultures contain McCoys complete medium (GIBCO), 20% fetal bovine serum, 0.3% agar, and 2×10^5 bone marrow cells/ml. The McCoys complete medium contains the following components: 1× McCoys medium supplemented with 0.1 mM pyruvate, 0.24× essential amino acids, 0.24× non-essential amino acids, 0.027% sodium bicarbonate, 0.24× vitamins, 0.72 mM glutamine, 25 μg/ml L-serine, and 12 μg/ml L-asparagine. The bone marrow cells are obtained from Balb/c mice injected i.v. with 150 mg/kg 5-FU. The femurs are harvested 2 days post 5-FU treatment of the mice and bone marrow is flushed out. The red blood cells are lysed with red blood cell lysing reagent (Becton Dickenson) prior to plating. Test substances are plated with the above mixture in 30 mm dishes. Fourteen days later the colonies (>1 mm in diameter) which contain thousands of cells are scored. This assay was used throughout the purification of natural mammalian cell-derived rat SCF.

[2] = system: murine mast cell line, MC/9; test: MC/9 ^3H-thymidine uptake assay; format: cell-based; settings: typical
Procedure: Another useful biological activity of both naturally-derived and recombinant rat SCF is the ability to cause the proliferation of the […] murine mast cell line, MC/9 (ATCC CRL 8306). MC/9 cells are cultured with a source of […] according to the ATCC CRL 8306 protocol. The medium used in the bioassay is RPMI 1640, 4% fetal bovine serum, 5×10^−5M 2-mercaptoethanol, and 1× glutamine-pen-strep. The MC/9 cells proliferate in response to SCF without the requirement for other growth factors. This proliferation is measured by first culturing the cells for 24 h without growth factors, plating 5000 cells in each well of 96 well plates with test sample for 48 h, pulsing for 4 h with 0.5 uCi ^3H-thymidine (specific activity 20 Ci/mmol), harvesting the solution onto glass fiber filters, and then measuring specifically-bound radioactivity. This assay was used in the purification of mammalian cell derived rat SCF after the ACA 54 gel filtration step, section C2 of this Example. Typically, SCF caused a 4–10 fold increase in CPM over background.

normal mouse bone marrow = test: CFU-GM assay on normal mouse bone marrow; format: cell-based; settings: 10 day period, no other factors
Procedure: The action of purified mammalian SCF, both naturally-derived and recombinant, free from interfering colony stimulating factors (CSFs), on normal undepleted mouse bone marrow has been ascertained. A CFU-GM assay [Broxmeyer et al. Exp. Hematol., 5, 87 (1977)] is used to evaluate the effect of SCF on normal marrow. Briefly, total bone marrow cells after lysis of red blood cells are plated in semi-solid agar cultures containing the test substance. After.10 days, the colonies containing clusters of >40 cells are scored. The agar cultures can be dried down onto glass slides and the morphology of the cells can be determined via specific histological stains.

[3] = system: bone marrow cells (CFU-S); test: pre-CFU-S assay; format: cell-based, mouse
Procedure: The in vitro survival and proliferation of primitive stem cells is critical to the success of gene transfer mediated by retroviral insertion or other known methods of gene transfer. The effect of SCF on the in vitro maintenance and/or proliferation of primitive progenitor cells has been studied in two systems which have been described previously [Bodine et al., Proc. Natl. Acad. Sci. 86 8897–8901, 1989]. The first is a pre-CFU-S assay wherein bone marrow cells are incubated for up to six days in suspension culture in the presence of growth factors. Aliquots are injected into lethally iradiated mice and the mice sacrificed at 12–14 days for quantitation of spleen focus formation. […] The second is a competitive repopulation assay which measures the effects of growth factors on recovery and biological activity of cells capable of sustaining long-term hematopoiesis. Cells from two congenic strains of mice differing for a hemoglobin marker are incubated in suspension independently, cells from one strain as a control and cells from a second under experimental conditions. After incubation, equal numbers of bone marrow cells from both cultures are mixed and injected into W/W^v recipients.

B1: rat SCF: rat stem cell factor, natural (purified from BRL 3A conditioned medium) or recombinant; form not specified at the place (protein, UniProt P21581 26-190, looked up)
Soluble KIT ligand: QEICRNPVTDNVKDITKLVANLPNDYMITLNYVAGMDVLPSHCWLRDMVTHLSVSLTTLLDKFSNISEGLSNYSIIDKLGKIVDDLVACMEENAPKNVKESLKKPETRNFTPEEFFSIFNRSIDAFKDFMVASDTSDCVLSSTLGPEKDSRVSVTKPFMLPPVAA
[1]
  HPP-CFC per 200,000 cells plated: approximately 50
[2]
  increase in CPM over background: 4–10 fold
Normal mouse bone marrow
  colonies from 200,000 cells plated: over 100
[3]
  activity in the pre-CFU-S assay: very little activity
